According to ChEMBL document CHEMBL2074010, “Transport function and hepatocellular localization of mrp6 in rat liver” (Mol Pharmacol, 2000):

Experiments:
[1] = substrate: CC(C)C[C@@H]1NC(=O)[C@@H](C(C)C)NC(=O)[C@@H]2CCCN2C(=O)[C@@H](CC(=O)O)NC(=O)[C@@H](Cc2c[nH]c3ccccc23)NC1=O; experiment: TP_TRANSPORTER: uptake in membrane vesicles from Mrp2-expressing Sf9 cells; assay type: functional, cell membranes, Membrane vesicle
[2] = substrate: CC(C)C[C@@H]1NC(=O)[C@@H](C(C)C)NC(=O)[C@@H]2CCCN2C(=O)[C@@H](CC(=O)O)NC(=O)[C@@H](Cc2c[nH]c3ccccc23)NC1=O; experiment: TP_TRANSPORTER: uptake in membrane vesicle from Mrp6-expressing Sf9 cells; assay type: functional, cell membranes

B1: ATP-binding cassette sub-family C member 2 (Rattus norvegicus) (protein)
chain: MDKFCNSTFWDLSLLESPEADLPLCFEQTVLVWIPLGFLWLLAPWQLYSVYRSRTKRSSITKFYLAKQVFVVFLLILAAIDLSLALTEDTGQATVPPVRYTNPILYLCTWLLVLAVQHSRQWCVRKNSWFLSLFWILSVLCGVFQFQTLIRALLKDSKSNMAYSYLFFVSYGFQIVLLILTAFSGPSDSTQTPSVTASFLSSITFSWYDRTVLKGYKHPLTLEDVWDIDEGFKTRSVTSKFEAAMTKDLQKARQAFQRRLQKSQRKPEATLHGLNKKQSQSQDVLVLEEAKKKSEKTTKDYPKSWLIKSLFKTFHVVILKSFILKLIHDLLVFLNPQLLKLLIGFVKSSNSYVWFGYICAILMFAVTLIQSFCLQSYFQHCFVLGMCVRTTVMSSIYKKALTLSNLARKQYTIGETVNLMSVDSQKLMDATNYMQLVWSSVIQITLSIFFLWRELGPSILAGVGVMVLLIPVNGVLATKIRNIQVQNMKNKDKRLKIMNEILSGIKILKYFAWEPSFQEQVQGIRKKELKNLLRFGQLQSLLIFILQITPILVSVVTFSVYVLVDSANVLNAEKAFTSITLFNILRFPLSMLPMVTSSILQASVSVDRLERYLGGDDLDTSAIRRVSNFDKAVKFSEASFTWDPDLEATIQDVNLDIKPGQLVAVVGTVGSGKSSLVSAMLGEMENVHGHITIQGSTAYVPQQSWIQNGTIKDNILFGSEYNEKKYQQVLKACALLPDLEILPGGDMAEIGEKGINLSGGQKQRVSLARAAYQDADIYILDDPLSAVDAHVGKHIFNKVVGPNGLLAGKTRIFVTHGIHFLPQVDEIVVLGKGTILEKGSYRDLLDKKGVFARNWKTFMKHSGPEGEATVNNDSEAEDDDDGLIPTMEEIPEDAASLAMRRENSLRRTLSRSSRSSSRRGKSLKNSLKIKNVNVLKEKEKEVEGQKLIKKEFVETGKVKFSIYLKYLQAVGWWSILFIILFYGLNNVAFIGSNLWLSAWTSDSDNLNGTNNSSSHRDMRIGVFGALGLAQGICLLISTLWSIYACRNASKALHGQLLTNILRAPMRFFDTTPTGRIVNRFSGDISTVDDLLPQTLRSWMMCFFGIAGTLVMICMATPVFAIIIIPLSILYISVQVFYVATSRQLRRLDSVTKSPIYSHFSETVTGLPIIRAFEHQQRFLAWNEKQIDINQKCVFSWITSNRWLAIRLELVGNLVVFCSALLLVIYRKTLTGDVVGFVLSNALNITQTLNWLVRMTSEAETNIVAVERISEYINVENEAPWVTDKRPPADWPRHGEIQFNNYQVRYRPELDLVLKGITCNIKSGEKVGVVGRTGAGKSSLTNCLFRILESAGGQIIIDGIDVASIGLHDLRERLTIIPQDPILFSGSLRMNLDPFNKYSDEEVWRALELAHLRSFVSGLQLGLLSEVTEGGDNLSIGQRQLLCLGRAVLRKSKILVLDEATAAVDLETDSLIQTTIRKEFSQCTVITIAHRLHTIMDSDKIMVLDNGKIVEYGSPEELLSNRGSFYLMAKEAGIENVNHTEL
Work on B1 yielded a Km [1] of 124 µM.

B2: ATP-binding cassette sub-family C member 6 (Rattus norvegicus) (protein)
chain: MNGEHSMATPGESCAGLRVWNQTEQEPVAYHLLNLCFLRAAGSWVPPMYLWVLGPIYLLYIHRHGCCYLRMSRLFKIKMVLGFALILLYTFNAAVPLWRIHRGMPQAPELLIHPTVWLTTMSFATFLIHMERKKGVRASGLLFGYWLLCCLVPAIDTVQQASAGSFRQEPLHHLATYLCLSLVVAELVLSCLVDQPPFFSEDSKPLNPCPEAEASFPSKAMFWWASGLLWKGYRKLLGPKDLWSLERENSSEELVSQLEREWRRNFSELPGHKGHSGMGTPETEAFLQPERSQRGPLLRAIWRVFRSTFLLGTLSLVISDAFRFAVPKLLSLFLEFMGDLESSAWTGWLLAVLMFLSACLQTLFEQQYMYRVKVLQMRLRTAITGLVYRKVLVLSSGSRKSSAAGDVVNLVSVDVQRLVESILHLNGLWLLFLWIIVCFVYLWQLLGPSALTAVAVFLSLLPLNFFITKKRSFHQEEQMRQKASRARLTSSMLRTVRTIKSHGWECAFLERLLHIRGQELGALKTSAFLFSVSLVSFQVSTFLVALVVFAVHTLVAEDNAMDAEKAFVTLTVLSILNKAQAFLPFSVHCLVQARVSFDRLAAFLCLEEVDPNGMVLSPSRCSSKDRISIHNGTFAWSQESPPCLHGINLTVPQGCLLAVVGPVGAGKSSLLSALLGELLKVEGSVSIEGSVAYVPQEAWVQNTSVVENVCFRQELDLPWLQEVLEACALGSDVASFPAGVHTPVGEQGMNLSGGQKQRLSLARAVYRRAAVYLMDDPLAALDAHVSQEVFKQVIGPSGLLQGTTRILVTHTLHVLPQADQILVLANGTIAEMGSYQDLLHRNGALVGLLDGARQPAGEGEGEAHAAATSDDLGGFSGGGTPTRRPERPRPSDAAPVKGSTSEAQMEPSLDDVEVTGLTAGEDSVQYGRVKSATYLSYLRAVGTPLCTYTLFLFLCQQVASFCQGYWLSLWADDPVVDGKQMHSALRGSIFGLLGCLQAIGLFASMAAVFLGGARASCLLFRSLLWDVARSPIGFFERTPVGNLLNRFSKETDIVDVDIPDKMRTLLTYAFGLLEVGLAVSMATPLAIVAILPLMLLYAGFQSLYVATCCQLRRLESASYSSVCSHLAETFQGSQVVRAFQAQGPFTAQHDALMDENQRISFPRLVADRWLAANLELLGNGLVFVAATCAVLSKAHLSAGLAGFSVSAALQVTQTLQWVVRSWTDLENSMVAVERVQDYVHTPKEAPWRLPSSAAQPLWPCGGQIEFRDFGLRHRPELPMAVQGVSLKIHAGEKVGIVGRTGAGKSSLTWGLLRLQEATEGGIWIDGVPITDMGLHTLRSRITIIPQDPVLFPGSLRMNLDLLQENTDEGIWAALETVQLKAFVTSLPGQLQYECSGQGDDLSVGQKQLLCLARALLRKTQILILDEATASVDPGTEIQMQAALERWFAQCTVLLIAHRLRSVMNCARVLVMDEGQVAESGSPAQLLAQKGLFYRLAQESGLA
With B2 the Km [2] was 17 µM.
